# How the values were obtained:
# Test in all cases: cell-based or functional assay
# [1] = biological target: FSTL1 (Follistatin-like 1) protein (human) (UniProt Q12841)
# IL-10 protein = IL-10 protein (UniProt P22301)
# [2] = biological target: IL-13Ra2 (interleukin 13 alpha 2 receptor) protein (human) (UniProt Q14627)
# [3] = biological target: MCP1 (monocyte chemoattractant protein-1) protein (human) (UniProt P13500)
# TGF-beta = TGF-beta (UniProt P01137)
# [4] = biological target: TSP1 (thrombospondin-1) protein (human) (UniProt P07996)
# UniProt P07996, sequence (P07996 19-1170 limits assumed): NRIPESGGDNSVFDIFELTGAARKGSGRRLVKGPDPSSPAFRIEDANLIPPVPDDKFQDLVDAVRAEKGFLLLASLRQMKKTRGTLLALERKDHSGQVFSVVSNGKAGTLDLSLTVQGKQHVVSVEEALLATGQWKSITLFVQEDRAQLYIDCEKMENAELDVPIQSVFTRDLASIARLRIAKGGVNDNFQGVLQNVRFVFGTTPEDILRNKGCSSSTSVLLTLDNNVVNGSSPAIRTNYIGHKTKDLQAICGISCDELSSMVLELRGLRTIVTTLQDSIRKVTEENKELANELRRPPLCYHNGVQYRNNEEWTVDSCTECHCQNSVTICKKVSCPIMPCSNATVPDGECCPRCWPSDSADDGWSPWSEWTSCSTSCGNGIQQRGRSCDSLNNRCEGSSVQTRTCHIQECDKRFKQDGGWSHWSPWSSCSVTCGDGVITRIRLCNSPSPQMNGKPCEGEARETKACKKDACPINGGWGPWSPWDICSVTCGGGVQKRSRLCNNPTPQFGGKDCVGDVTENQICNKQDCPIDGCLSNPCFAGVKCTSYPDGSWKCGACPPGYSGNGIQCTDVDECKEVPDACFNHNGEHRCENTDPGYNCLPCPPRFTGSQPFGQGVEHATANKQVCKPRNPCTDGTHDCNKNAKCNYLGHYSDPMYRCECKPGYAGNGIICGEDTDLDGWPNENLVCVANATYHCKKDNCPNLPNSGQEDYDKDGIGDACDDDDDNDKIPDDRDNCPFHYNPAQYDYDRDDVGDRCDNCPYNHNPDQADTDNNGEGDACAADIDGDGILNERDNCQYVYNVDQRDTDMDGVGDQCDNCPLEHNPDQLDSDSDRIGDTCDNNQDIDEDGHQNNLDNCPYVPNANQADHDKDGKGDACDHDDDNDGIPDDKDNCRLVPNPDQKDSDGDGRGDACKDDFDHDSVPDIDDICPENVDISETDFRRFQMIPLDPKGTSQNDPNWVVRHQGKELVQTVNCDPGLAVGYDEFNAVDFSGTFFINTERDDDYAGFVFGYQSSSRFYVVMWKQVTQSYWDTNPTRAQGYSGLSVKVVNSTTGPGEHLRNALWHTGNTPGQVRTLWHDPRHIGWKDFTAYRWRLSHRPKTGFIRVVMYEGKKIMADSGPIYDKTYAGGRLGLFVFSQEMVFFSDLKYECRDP
# UniProt P22301, sequence (P22301 19-178 limits assumed): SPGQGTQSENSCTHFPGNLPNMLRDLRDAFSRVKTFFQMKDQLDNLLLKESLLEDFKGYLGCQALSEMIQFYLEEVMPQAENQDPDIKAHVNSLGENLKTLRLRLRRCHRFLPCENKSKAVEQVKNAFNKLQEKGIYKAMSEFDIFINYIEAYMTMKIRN
# UniProt Q12841, sequence (Q12841 21-308 limits assumed): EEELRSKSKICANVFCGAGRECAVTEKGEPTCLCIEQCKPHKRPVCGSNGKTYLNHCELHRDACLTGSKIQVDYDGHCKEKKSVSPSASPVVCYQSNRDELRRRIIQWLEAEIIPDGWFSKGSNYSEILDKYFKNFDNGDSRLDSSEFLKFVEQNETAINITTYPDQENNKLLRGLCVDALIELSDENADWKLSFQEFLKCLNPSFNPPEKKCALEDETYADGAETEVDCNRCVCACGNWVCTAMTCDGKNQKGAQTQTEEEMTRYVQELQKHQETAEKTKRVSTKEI
# UniProt P01137, sequence (P01137 279-390 limits assumed): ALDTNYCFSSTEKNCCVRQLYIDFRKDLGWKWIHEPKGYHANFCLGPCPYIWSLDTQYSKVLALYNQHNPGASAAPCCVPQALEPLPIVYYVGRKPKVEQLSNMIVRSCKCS
# UniProt P13500, sequence (P13500 24-99 limits assumed): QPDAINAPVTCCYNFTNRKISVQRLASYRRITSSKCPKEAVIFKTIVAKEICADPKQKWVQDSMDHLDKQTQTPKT
# UniProt Q14627, sequence (Q14627 27-380 limits assumed): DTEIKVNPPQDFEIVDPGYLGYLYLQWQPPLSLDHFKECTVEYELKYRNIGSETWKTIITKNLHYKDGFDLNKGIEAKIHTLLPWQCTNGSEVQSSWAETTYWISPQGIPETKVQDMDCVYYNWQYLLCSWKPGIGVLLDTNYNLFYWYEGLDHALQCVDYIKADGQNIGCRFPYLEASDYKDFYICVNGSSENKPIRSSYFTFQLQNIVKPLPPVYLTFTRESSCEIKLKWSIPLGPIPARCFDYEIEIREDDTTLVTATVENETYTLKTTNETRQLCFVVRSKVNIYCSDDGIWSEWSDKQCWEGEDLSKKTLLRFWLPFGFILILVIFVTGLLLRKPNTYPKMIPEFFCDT
substance,measurement,setting,value
anti-FSTL1 antibody (R&D #MAB1694),"decrease in cellular infiltration capability of F3 cells (matrigel Transwell, antibody at 1 ug/ml)",[1],45%
same,"expression level of FoxP3 protein in CD4+ cells, F3 clone with antibody (FIG. 6; 35.34 without)",[1],14.9
same,"expression level of FoxP3 protein in CD4+ cells, F3 clone with antibody (FIG. 7; 38.39 without)",[1],34.7
same,"expression level of FoxP3 protein in CD4+CD25+ cells, F3 clone with antibody",[1],29.9
same,"expression level of FoxP3 protein in CD4+CD25- cells, F3 clone with antibody",[1],32.6
anti-IL-10 antibody (R&D #MAB2171),"expression level of FoxP3 protein in CD4+ cells, F3 clone with antibody (FIG. 6)",IL-10 protein,11.4
same,"expression level of FoxP3 protein in CD4+ cells, F3 clone with antibody (FIG. 7)",IL-10 protein,30.9
same,"expression level of FoxP3 protein in CD4+CD25+ cells, F3 clone with antibody",IL-10 protein,29.9
same,"expression level of FoxP3 protein in CD4+CD25- cells, F3 clone with antibody",IL-10 protein,28.1
anti-IL-13Ra2 antibody (R&D #AF146),"FoxP3 protein expression in CD8+ cells, B11 cells (FIG. 14)",[2],10.2
same,"expression level of FoxP3 protein in CD4+ cells, F3 clone with antibody (FIG. 6)",[2],11.9
same,expression of FoxP3 protein enhanced by the culture supernatant of B11 clone (FIG. 8; 23.69 without antibody),[2],7.6
anti-MCP1 antibody (BD PharMingen #551226),"FoxP3 protein expression in CD8+ cells, F3 cells (FIG. 13)",[3],12
same,"decrease in cellular infiltration capability of F3 cells (matrigel Transwell, antibody at 1 ug/ml)",[3],45%
same,"expression level of FoxP3 protein in CD4+ cells, F3 clone with antibody (FIG. 6; 35.34 without)",[3],16.3
same,"expression level of FoxP3 protein in CD4+ cells, F3 clone with antibody (FIG. 7; 38.39 without)",[3],22.9
same,"expression level of FoxP3 protein in CD4+CD25+ cells, F3 clone with antibody",[3],22.1
same,"expression level of FoxP3 protein in CD4+CD25- cells, F3 clone with antibody",[3],19
same,expression of FoxP3 protein enhanced by the culture supernatant of B11 clone (FIG. 8),[3],4.69
anti-TGF-beta1 antibody (R&D #MAB246),"expression level of FoxP3 protein in CD4+ cells, F3 clone with antibody (FIG. 6)",TGF-beta,23.4
same,"expression level of FoxP3 protein in CD4+ cells, F3 clone with antibody (FIG. 7)",TGF-beta,30.6
same,"expression level of FoxP3 protein in CD4+CD25+ cells, F3 clone with antibody",TGF-beta,28.9
same,"expression level of FoxP3 protein in CD4+CD25- cells, F3 clone with antibody",TGF-beta,28.4
anti-TSP1 antibody (ABCAM #ab3131),"FoxP3 protein expression in CD8+ cells, F3 cells (FIG. 13)",[4],5.28
same,"expression level of FoxP3 protein in CD4+ cells, F3 clone with antibody (FIG. 6; 35.34 without)",[4],9.26
same,"expression level of FoxP3 protein in CD4+ cells, F3 clone with antibody (FIG. 7; 38.39 without)",[4],21.4
same,"expression level of FoxP3 protein in CD4+CD25+ cells, F3 clone with antibody",[4],27.8
same,"expression level of FoxP3 protein in CD4+CD25- cells, F3 clone with antibody",[4],16.6

# — patent US20100291677A1
